The data set is described as follows: soluble on expression in E. coli; label from the status in PepcDB or PDB records.
As to “MDEVANALAVSQTMMEKMQKLEISKNYDVEKFETLLRLPARDVNTFMEKEAKKTDDEKMTDMDRRIKRIREDKTDRAARTLQKYFRKIRVKGEQNHINKRISKIPAKRRVVLLEQIRQKMGEQQPIRRFGGYQVIRAVELHKGKQKLQKDWLAKLSIDVNFHDKNLSRPNSPTHFIANSIPTLIRKKAEMKHAEKMQEIDSSIMDIYCGFQKDNLH”, the “soluble on expression in E. coli” value is “not soluble”.

On to “MEGMDHGSHSMPMGASSDAPAQSRTPIPPVTDADRAAVYTSHSGHQVHDSAINSYFVADKLEWQDANDGSALAWDLSGWIGGDIDRLLLRSEGERTNGKTEEAEVQALWGHAVSSSWDVVAGARQDFKPGAPQTWAAFGLQGQAISDLDVEATAFIGDAGQTAARLEADYDLLLTNDLILQPTGELNFYGKNDPQRGNGSGLSTSEFGLRLRYEITPQFAPYVGVTWNRSYGKTADYAREDDEDVAQARLVVGLRLWFLEHHHHHH”, for which the “soluble on expression in E. coli” value was “not soluble”.

As for “MSLRRIGITQRLLETREYIETREALDVRWGELFYHLSWGMIPLSYAVPLEVYIKEFALEGVILSGGNDLNDFVSSPLNKKRDAYEKEILRYAKQYAFPLLGVCRGAQMIAYEGGSLLEFCEGHVGRHEIFWEEGEGEIIGSEHQLAIKELGAGLIPLARSCEGLVEAFRGEEAPLFGMMWHPERQDKRSAGTLKMVELFSQALQKREGHHHHHH”, the “soluble on expression in E. coli” value is “soluble”.

For the sequence “MPCRLTRLFGIEFPIIQAPMAGVQGSALAIAVSEAGGLGSLPCAMLSLEALEAELTAIRSQTAKPINVNFFCHREPVAQAAKQAAWLEQLAPYFAEFNLDPNAQPAGAQRTPYSKAQAEVLAKFKPEVVSFHFGLPDEELLLEIKSWGSKVISTATTVEEALWLEARGADAIIAQGLEAGGHRGHFLSEDLTEQLGTFSLLPQIIAAVEIPVIAAGGIVDATTVRAAMTMGASAVQVGTAYLLCPECNTSAIHREALQSDAAQHTALTNLFSGRPARGIVNRFMAEMGPMNEAVPDFPLASSAVAGLRTAAERLGFWDFSPLWCGQNASGCRAIPAADLTRSFVLSLPSSCVEPQEKSGAAALEHHHHHH”, the “soluble on expression in E. coli” value was “not soluble”.

In the case of “MGSDKIHHHHHHMAMEHVDVLIVGAGLSGIGAAYHLQKHCPGKTYAILEGREAIGGTWDLFRYPGIRSDSDMYTLGYSFKPWKAAKAIADGPSILDYVRETAREHDIDRHIRFQHLVKRASWSSETATWTVEAEHDGKPVTLTCRFLHMCSGYYRYSAGYTPDFAGTERFKGRIVHPQHWPEDLDYSGKKVVVIGSGATAVTLVPEMAKTAAHVTMLQRSPTYVVSRPAEDGIANWLRSKLPAMTAYGITRWKNVLFQLFFFNLARKKPEKVKERLLGMVRDHLGPGYDVETHFTPRYNPWDQRLCLVPDADLFDAIKSGAASVVTDHIETFTETGIQLKSGKTLDADVIVTATGLQLQLLSGMEVVVDGKVADLSQSMSYKGMMFSDVPNLASVFGYTNASWTLKADLTSEYVCRLLNHMDRTGADYCVPRLDGEVEAAPWLDFSSGYITRSIGHFPKQGTRKPWKVHQNYALDLMTLRMGKVEDGVMQFGRKTGATAKAKPEKALEPA”, the “soluble on expression in E. coli” value is listed as “not soluble”.

In the case of “MSLDLMTKLKIYNGEEIVEKASIKKIEREELEEECRQKEGMTGVSTRFIIKAINNAICESNCSCINPIDVINSLITAVKEKDLCEEVEDKYISFLEDVVRKEYNKILYKEITKFFIESFNSQGEALFNNYLDHAEAYVNKVYLKDNITGENLDPDEEFMREIEEEIGVTENSSKGFRKDVVAYILYLIRKGEEINCNCYKPLKEAIERKLISSSREISRIINPSKIRNKAQDEKYKFIVEKLKNNGYCDTCAFYTLRYAANNFWRDEGHHHHHH”, the “soluble on expression in E. coli” value is “not soluble”.

Turning to “MYKIVNNDQNKRLVIAKSKAQSLRKTFLHSCLPKMPLSQPWSHSFEICQEHNTQKRISYSRLHRSIGRLRVFLTDDNSILKSTNKFIKILIQQIAFHNLFRWYCRWNDEFQVDEHLDHFCRKDKAQEVFNVSWLVLKFNVFKLYTQKFLYTYSFITIFRLSFRFPTTFRSIF”, the “soluble on expression in E. coli” value was “not soluble”.

Consider “MGSDKIHHHHHHMDGVKCQFVNTNGITLHVAAAGREDGPLIVLLHGFPEFWYGWKNQIKPLVDAGYRVIAPDQRGYNLSDKPEGIDSYRIDTLRDDIIGLITQFTDEKAIVIGHDWGGAVAWHLASTRPEYLEKLIAINIPHPHVMKTVTPLYPPQWLKSSYIAYFQLPDIPEASLRENDYDTLDKAIGLSDRPALFTSEDVSRYKEAWKQPGALTAMLNWYRALRKGSLAEKPSYETVPYRMIWGMEDRFLSRKLAKETERHCPNGHLIFVDEASHWINHEKPAIVNQLILEYLKNQ”, for which the “soluble on expression in E. coli” value is given as “not soluble”.

“MGSDKIHHHHHHMAIRSSVLALCVATLLTGCQNLNTNTLMQSGAQAFQAATLSDAQVKALSDQSCEQMDKEAKIAPADSKYTQRLNKIADALGHDINGTPANYKVYLEKDVNAWAMANGCIRVYSGLMDMMNDNEVEGVLGHEMGHVALGHTRKAMQVAYAATAARTAIASAGGVAASLSQSQLADLGEKLVNSQFSQSQESQADDYSFDLLKKRGINREGLASSFEKLAKLDASHESSMFDSHPSSEGRAKHIRERITAEK”: the “soluble on expression in E. coli” value is on record as “not soluble”.

On to “GALPDPVKPKAPKAVNPFHLGMAGYTFVNFDLDTTLKTLERLDIHYLCIKDFHLPLNSTDEQIRAFHDKCAAHKVTGYAVGPIYMKSEEEIDRAFDYAKRVGVKLIVGVPNYELLPYVDKKVKEYDFHYAIHLHGPDIKTYPDATDVWVHTKDLDPRIGMCLDVGHDLRNGCDPVADLKKYHTRVFDMHIKDVTDSSKAGVGIEIGRGKIDFPALIRMMREVNYTGMCSLEYEKDMKDPFLGIAESIGYFKAVSDLT”, for which the “soluble on expression in E. coli” value is listed as “soluble”.

As to “MRNIDFSPLYRHAIGFDRLFNLVENSANKPSQQNGYPPYNIEQKDENNYRITMAVAGFSEDALTISQNEHMLIVSGDITSSEIKPTYVYQGIAERNFERKFQLADYVTVSAASMENGLLHIDLVREVPEAVQARKIAINK”, the “soluble on expression in E. coli” value is given as “not soluble”.

Regarding “ASASYYEQYHSLNEIYSWIEFITERHPDMLTKIHIGSSFEKYPLYVLKVSGKEQAAKNAIWIDCGIHAREWISPAFCLWFIGHITQFYGIIGQYTNLLRLVDFYVMPVVNVDGYDYSWKKNRMWRKNRSFYANNHCIGTDLNRNFASKHWCEEGASSSSCSETYCGLYPESEPEVKAVASFLRRNINQIKAYISMHSYSQHIVFPYSYTRSKSKDHEELSLVASEAVRAIEKTSKNTRYTHGHGSETLYLAPGGGDDWIYDLGIKYSFTIELRDTGTYGFLLPERYIKPTCREAFAAVSKIAWHVIRNV”, the “soluble on expression in E. coli” value is on record as “soluble”.

In the case of “MMTRESIDKRAGRRGPNLNIVLTCPECKVYPPKIVERFSEGDVVCALCGLVLSDKLVDTRSEWRTFSNDDHNGDDPSRVGEASNPLLDGNNLSTRIGKGETTDMRFTKELNKAQGKNVMDKKDNEVQAAFAKITMLCDAAELPKIVKDCAKEAYKLCHDEKTLKGKSMESIMAASILIGCRRAEVARTFKEIQSLIHVKTKEFGKTLNIMKNILRGKSEDGFLKIDTDNMSGAQNLTYIPRFCSHLGLPMQVTTSAEYTAKKCKEIKEIAGKSPITIAVVSIYLNILLFQIPITAAKVGQTLQVTEGTIKSGYKILYEHRDKLVDPQLIANGVVSLDNLPGVEKK”, the “soluble on expression in E. coli” value is “soluble”.

On to “MSFMPAIVGPIAINSISGGVVNFGDSFYLSPKSSSKSALGSGAGNTGDFLLLNNAVNATNYIDPDVNDQDMVGNGLEHHHHHH”, for which the “soluble on expression in E. coli” value is “not soluble”.

Take “MNKIAIQKPNIPENLQTADFHDAVTQDDVISMHLFEDCTICGEDIERLCVEKTVFRNVVFIDVSFRHIELTDVIFEKCDLSNADFSGAVIHRTSVKQSKMVGMNVAEATLRNVSFEECHGHFSSFSYSNMKQVRFDHCALMQSECSDTVLQQTHFDGCELEGASFTGTSLQNMDISTCRFEQLHVSLDKLKGCKIAPEHAIAFARALGAVIVLEHHHHHH”: the “soluble on expression in E. coli” value is on record as “soluble”.

Regarding “MSLSFFAHFSPLSGHQKQAAHQILPHLFLGSAAAARSATWLQQNRITHIVCVHNAEVSPHELKRQLTISHPAGDTRATSHHHRQQTVAGQLVVHPDRCVYCCCYVQDTPQQVFLPVLFPVMDFIDNAIRDQSFRGGSPSGAPHGNVLVHCAKGISRSASLVICYLMFRRCWSYADSFTYIRRKRPIYPNVGFQASILTQLLETQELVENMFSQSEGHHHHHH”, the “soluble on expression in E. coli” value is “not soluble”.

On to “MSLNEDWPTIAFLVPMDRNHEYGRNYVSSLRKAAEEHHVNAFVMNSNYDASVQASQMKIAIAKKVDGIVIWPALYGAEQPMLIQAQRAGIPVDISNSQPPEDLDTSLYHAFTGPNDQRIGELQGKELAKLLGSKGTYVYIGGTPGNAAAINRQIGLEREMANHPDVKLLGSQPGNFDKNQAQTAASALISRFGNQIDALVTPDDIIASGAAQALDAAGMAGQVKLLGHNYAPVARSLLENGSMSTTLFQSPCWDSTHALTTMMDVLAGKDVPPVSYMPLPVVTKDNLDEFTPNGCLPEGYSEPATNEGHHHHHH”, for which the “soluble on expression in E. coli” value is given as “soluble”.

Take “GMYQTIEGFLQSWTYETESTQKMLDVLTDESLSQEIAPGHWTLGRVAWHIVTAIPVILSGTGLKFEGETKDYPVPTSAKTIADGYRKVNTAFVEALQSEWTDKDLTTINDFFGRPMPNSIFLMTLINHQNHHRGQMTVLMRQAGLTVPGVYGPAKEEWATAGMEAPKM”: the “soluble on expression in E. coli” value was “soluble”.

Consider “MSKKRGLSGEEKRTRMMEIFFETKDVFQLKDLEKLAPKEKGITAMSVKEVLQSLVDDGMVDCERIGTSNYYWAFPSKALHARKRKLEALNSQLSEGSQKHADLQKSIEKARVGRQETEERAMLAKELFSFRDQRQQLKAEVEKYRECDPQVVEEIREANKVAKEAANRWTDNIFAIKSWAKRKFGFEESKIDKNFGIPEDFDYIDMSKSRAEAAAGAPGIILRYLQEQNRPYSAQDVFGNLQKEHGLGKAAVVKALDQLAQEGKIKEKTYGKQKIYFADQNQFDTVSDADLHGLDASIVALTAKVQSLQQSCRHMEAELKELTSALTTPEMQKEIQELKKECAQYTERLKNIKAATNHVTPEEKEKVYRDRQKYCKEWRKRKRMTTELCDAILEGYPKSKKQFFEEVGIETDEDHNVLLPDP”, for which the “soluble on expression in E. coli” value is reported as “soluble”.

As to “MGSDKIHHHHHHCGVEEKTEVQLLKEMPKPKAMTIDPSLSQKEATEMVHAAQRFYAFWDTGKEELIPQTVTENFFDHTLPKGRPQGTEGLKFAAQNFRKIVPNIHCEIEDLLVVGDKVTARLSFTGTHNDKKIDFFAIDILHVKDGKITEDWHLEDNLTLKQQLGLIAEE”, the “soluble on expression in E. coli” value is on record as “not soluble”.

In the case of “NQVEKSLISSYEQSLNQRIDNLSYYIEQEYKSDNDSTVIKDDVSRILNDFTKSDEVREISFVDKSYEVVGSSKPYGEEVAGKQTTDLIFKRIFSTKQSYLRKYYDPKSKIRVLISAKPVMTENQEVVGAIYVVASMEDVFNQMKTINT”, the “soluble on expression in E. coli” value was “not soluble”.

As to “MCLAVPGKVIEVNGPVAVVDFGGVKREVRLDLMPDTKPGDWVIVHTGFAIEKLDEKKAMEILEAWAEVEKAMEGF”, the “soluble on expression in E. coli” value is recorded as “soluble”.

For the sequence “MNQEYLDFELPIAELEAKIEALRAASDDKVDLTDEIKRLQKKSNELTKKTFANLDAWQVSRMARHPNRPYTLDYIEHIFTEFEELAGDRAFADDKAIVGGLARLDGRPVMVIGHQKGRSVKEKVQRNFGMPAPEGYRKALRLMEMAERFKLPIITFIDTPGAYPGIGAEERGQAEAIARNLREMAQLTVPVICTVIGEGGSGGALAIGVGDKVNMLQYSTYSVISPEGCASILWKSAEKASTAAEVMGLTASRLKELNLIDSIVQEPLGGAHRSYLEIAENLKLRLKEDLAELDELSKEELLNRRYERLMSYGYC”, the “soluble on expression in E. coli” value is given as “not soluble”.

The record behind these values is the DeepSol protein solubility set.
